This passage reports ratio to parent and response results from publication PMC12618784.

For test [1], the target named is T1, Porin, Q94920.
T1 chain: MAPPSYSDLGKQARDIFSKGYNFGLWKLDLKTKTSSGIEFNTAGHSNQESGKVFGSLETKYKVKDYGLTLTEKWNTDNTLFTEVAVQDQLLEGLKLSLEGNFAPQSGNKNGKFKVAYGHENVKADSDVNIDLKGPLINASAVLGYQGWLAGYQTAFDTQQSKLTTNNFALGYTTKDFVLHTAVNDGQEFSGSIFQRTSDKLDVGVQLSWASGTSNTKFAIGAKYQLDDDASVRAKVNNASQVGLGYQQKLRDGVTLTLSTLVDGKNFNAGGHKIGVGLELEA
Put plainly: pull-down (anti-HA immunoprecipitation) with mass spectrometry. The note with it: chain shown with the change; 3rd instar larval muscle tissue (mef2-Gal4); four individual biological replicates; read off a plot.

Another test has as its target T2, Porin::HA, Q94920.
T2 chain: T1 chain
In words: co-immunoprecipitation (anti-GFP beads), quantified blot. The note with it: chain shown with the change; transfected Sf21 cells; values normalised to the corresponding amounts of precipitated Dmel\Tmem43; parent: est. 0.75; read off a plot.

The target in test [2] is T3, Sphingosine-1-phosphatase lyase (Sply), Q9V7Y2.
T3 chain: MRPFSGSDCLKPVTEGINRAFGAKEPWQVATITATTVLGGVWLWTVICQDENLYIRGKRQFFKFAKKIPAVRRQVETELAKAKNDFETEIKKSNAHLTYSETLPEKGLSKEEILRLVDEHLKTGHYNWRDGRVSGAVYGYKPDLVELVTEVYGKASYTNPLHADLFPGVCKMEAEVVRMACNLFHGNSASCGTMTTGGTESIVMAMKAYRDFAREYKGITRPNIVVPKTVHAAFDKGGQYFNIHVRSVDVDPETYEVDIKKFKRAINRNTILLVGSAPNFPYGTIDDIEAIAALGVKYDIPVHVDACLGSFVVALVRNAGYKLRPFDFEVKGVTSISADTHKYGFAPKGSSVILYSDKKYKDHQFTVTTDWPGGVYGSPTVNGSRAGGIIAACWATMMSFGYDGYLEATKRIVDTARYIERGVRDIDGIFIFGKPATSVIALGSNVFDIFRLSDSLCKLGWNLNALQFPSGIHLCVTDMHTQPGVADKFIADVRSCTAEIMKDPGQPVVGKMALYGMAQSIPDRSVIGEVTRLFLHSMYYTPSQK
Put plainly: TurboID biotin proximity labelling with mass spectrometry. The settings on record: chain shown with the change; 3rd instar larval muscle tissue (mef2-Gal4); parent: 1.

The next test deals with T4, Mitofilin, P91928.
T4 chain: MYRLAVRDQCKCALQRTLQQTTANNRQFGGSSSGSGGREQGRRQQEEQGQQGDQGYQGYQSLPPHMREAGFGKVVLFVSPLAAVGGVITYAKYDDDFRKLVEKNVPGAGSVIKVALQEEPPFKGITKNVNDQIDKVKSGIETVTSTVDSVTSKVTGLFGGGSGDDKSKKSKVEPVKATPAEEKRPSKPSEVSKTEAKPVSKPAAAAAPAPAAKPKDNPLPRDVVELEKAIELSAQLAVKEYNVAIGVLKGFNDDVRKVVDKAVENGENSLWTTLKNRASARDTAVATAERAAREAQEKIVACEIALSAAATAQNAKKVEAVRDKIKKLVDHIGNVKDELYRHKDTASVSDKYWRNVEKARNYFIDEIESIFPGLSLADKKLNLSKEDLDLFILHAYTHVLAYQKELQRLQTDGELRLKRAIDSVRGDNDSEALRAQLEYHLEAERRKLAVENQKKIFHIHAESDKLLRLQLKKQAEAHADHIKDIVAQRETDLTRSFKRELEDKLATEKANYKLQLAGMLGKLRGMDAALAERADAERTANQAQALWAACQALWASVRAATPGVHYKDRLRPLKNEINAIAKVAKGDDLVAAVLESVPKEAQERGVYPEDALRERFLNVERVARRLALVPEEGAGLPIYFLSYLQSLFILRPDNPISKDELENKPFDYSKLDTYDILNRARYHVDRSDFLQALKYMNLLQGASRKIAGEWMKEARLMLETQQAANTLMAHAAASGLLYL
The description is as above. The note with it: chain shown with the change; 3rd instar larval muscle tissue (mef2-Gal4); parent: 1.

In the next test the target is SERCA, P22700. The test is described as above. The settings on record: chain shown with the change; 3rd instar larval muscle tissue (mef2-Gal4); parent: 1.
Chain of SERCA, P22700 (P22700 whole entry, the tested form may be a part): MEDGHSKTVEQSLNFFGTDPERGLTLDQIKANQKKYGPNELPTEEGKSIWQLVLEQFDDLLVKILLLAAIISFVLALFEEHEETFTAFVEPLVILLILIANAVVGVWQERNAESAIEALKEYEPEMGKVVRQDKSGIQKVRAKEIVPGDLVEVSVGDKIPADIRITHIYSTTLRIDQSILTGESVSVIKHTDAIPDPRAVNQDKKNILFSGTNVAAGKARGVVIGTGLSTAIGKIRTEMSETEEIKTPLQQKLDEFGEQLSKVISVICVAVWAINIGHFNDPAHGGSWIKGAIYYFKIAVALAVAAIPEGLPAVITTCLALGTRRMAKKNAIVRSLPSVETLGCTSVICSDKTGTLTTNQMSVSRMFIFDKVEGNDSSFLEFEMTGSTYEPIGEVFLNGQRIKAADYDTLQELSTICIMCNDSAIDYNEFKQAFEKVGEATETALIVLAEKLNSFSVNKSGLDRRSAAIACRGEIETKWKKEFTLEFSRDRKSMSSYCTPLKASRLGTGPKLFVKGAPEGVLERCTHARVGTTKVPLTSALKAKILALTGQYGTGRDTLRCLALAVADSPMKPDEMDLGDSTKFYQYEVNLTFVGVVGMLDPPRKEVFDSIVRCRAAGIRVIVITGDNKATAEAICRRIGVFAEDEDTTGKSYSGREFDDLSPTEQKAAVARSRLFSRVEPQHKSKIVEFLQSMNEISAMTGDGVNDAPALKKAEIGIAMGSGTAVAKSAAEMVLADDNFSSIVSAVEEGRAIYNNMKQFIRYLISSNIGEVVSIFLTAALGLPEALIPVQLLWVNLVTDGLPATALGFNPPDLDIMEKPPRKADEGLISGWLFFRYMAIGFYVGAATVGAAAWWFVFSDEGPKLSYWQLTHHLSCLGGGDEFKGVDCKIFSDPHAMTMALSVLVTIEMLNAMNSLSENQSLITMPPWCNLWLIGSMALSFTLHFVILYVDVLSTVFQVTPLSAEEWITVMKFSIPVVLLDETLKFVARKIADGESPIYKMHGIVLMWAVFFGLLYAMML
For test [3], the target named is T1, Porin, Q94920. Described as above. The settings on record: chain shown with the change; 3rd instar larval muscle tissue (mef2-Gal4); parent: 1.

B1: Dmel\Tmem43wt::HA, Q9VSB9 p.S333L (protein)
chain: MASLSETLRSHWPIALFGVILFVAGGTELYWNEGRAVHNMMALDEAHADIYSVRFTEEEQEVGLEGRIVHLSGPILVGEPLTEPDYNIQLLAVKLRRRVQMYQWVEEAVEHNYGDSVGTTHSDSRTYYYTREWRDKIVDSRNFYNRHGHTNPSHFPIESHVQVADAVFIGRYELGAEVKEKFNNYQELTSDIRPEDSGVKLHLGIYYHTNDVFNPEVGDLRLLFSFAGMEGEVFSVVGKLSGNKLVPYITSRGVPVLLVYPGGLSVQEVFRLEARAQVLHTWWWRFVGWLLIFFGVTCNTKILRLLFVRVPLLVALAPDPQFPVTGNLLIAFLLALTIAAVAWILHRPVIGACLLLAGASPYVWFTRNLVDYHRLD
B1: the ratio to parent with Porin, Q94920 [1] stood at 0.4.

B2: Dmel\Tmem43wt::GFP, Q9VSB9 p.S333L (protein)
chain: B1 chain
For B2, the response with Porin::HA, Q94920 came out at 0.05.

B3: Dmel\Tmem43wt::TurboID, Q9VSB9 p.S333L (protein)
chain: B1 chain
On to B3, for which the ratio to parent in test [2] came out at 0.23; in the test with Mitofilin, P91928, 0.17; in the test with SERCA, P22700 it was 0.17; with Porin, Q94920 [3] it was 0.13.
